# Results from the supplement of paper PMC9112550, “Optimization of the antimicrobial peptide Bac7 by deep mutational scanning” (BMC Biology, 2022).
# System: Escherichia coli TOP10
# Assay: shrunken log2 fold change of peptide-encoding DNA abundance (4.5 h post-induction vs induction); higher = less antimicrobial activity (less host growth inhibition)
# Settings: time post-induction: 4.5 h; library: site-saturation at positions 5, 18, 19, 20
# 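Note: peptides expressed intracellularly from a pBAD plasmid library in pooled LB shake-flask culture, induced with 0.3% L-arabinose, DNA abundance read by NGS, three biological replicates, DESeq2 with apeglm shrinkage.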
row,Sequence,shrunken log2 fold change
1,RRIRHRPPRLPRPRPRPFLRPRP,-0.173
2,RRIRFRPPRLPRPRPRPGYCPRP,-0.321
3,RRIRLRPPRLPRPRPRPGMNPRP,-0.72
4,RRIRGRPPRLPRPRPRPKRQPRP,0.377
5,RRIRPRPPRLPRPRPRPVDGPRP,0.0909
6,RRIRPRPPRLPRPRPRPGIIPRP,-0.0894
7,RRIRARPPRLPRPRPRPDCPPRP,0.337
8,RRIRFRPPRLPRPRPRPMCNPRP,-0.24
9,RRIRWRPPRLPRPRPRPDAVPRP,0.4
10,RRIRQRPPRLPRPRPRPDSKPRP,-0.146
11,RRIRVRPPRLPRPRPRPFINPRP,-0.192
12,RRIRSRPPRLPRPRPRPTQNPRP,0.375
13,RRIRERPPRLPRPRPRPMIMPRP,-0.00163
14,RRIRSRPPRLPRPRPRPVLFPRP,-0.0544
15,RRIRQRPPRLPRPRPRPQRYPRP,-0.0112
16,RRIRNRPPRLPRPRPRPHFQPRP,0.0313
17,RRIRNRPPRLPRPRPRPERWPRP,0.699
18,RRIRARPPRLPRPRPRPQAQPRP,0.664
19,RRIRIRPPRLPRPRPRPFEMPRP,-0.22
20,RRIRGRPPRLPRPRPRPETPPRP,3.43

row,Sequence,shrunken log2 fold change
1,RRIRCRPPRLPRPRPRPIMWPRP,-0.123
2,RRIRHRPPRLPRPRPRPRPKPRP,-0.0808
3,RRIRHRPPRLPRPRPRPWIWPRP,-0.0845
4,RRIRHRPPRLPRPRPRPFASPRP,-0.182
5,RRIRYRPPRLPRPRPRPKIHPRP,-1.18
6,RRIRIRPPRLPRPRPRPRSNPRP,-0.0529
7,RRIRFRPPRLPRPRPRPCRYPRP,-0.0124
8,RRIRLRPPRLPRPRPRPMFKPRP,-0.245
9,RRIRCRPPRLPRPRPRPFLNPRP,-0.602
10,RRIRYRPPRLPRPRPRPQAIPRP,-0.066
11,RRIRKRPPRLPRPRPRPPVGPRP,1.04
12,RRIRDRPPRLPRPRPRPSAAPRP,1.02
13,RRIRQRPPRLPRPRPRPKYSPRP,-0.0125
14,RRIRWRPPRLPRPRPRPWTGPRP,-0.0518
15,RRIRSRPPRLPRPRPRPHATPRP,0.378
16,RRIRWRPPRLPRPRPRPMTAPRP,0.473
17,RRIRGRPPRLPRPRPRPSCSPRP,0.295
18,RRIRMRPPRLPRPRPRPQIIPRP,0.022
19,RRIRSRPPRLPRPRPRPRWTPRP,0.0635
20,RRIRMRPPRLPRPRPRPLCIPRP,0.21

row,Sequence,shrunken log2 fold change
1,RRIRARPPRLPRPRPRPHHYPRP,-0.223
2,RRIRNRPPRLPRPRPRPCVEPRP,-0.209
3,RRIRWRPPRLPRPRPRPGEYPRP,0.147
4,RRIRCRPPRLPRPRPRPGTKPRP,-0.404
5,RRIRGRPPRLPRPRPRPNKMPRP,0.162
6,RRIRMRPPRLPRPRPRPNKIPRP,0.0176
7,RRIRLRPPRLPRPRPRPDWMPRP,-0.152
8,RRIRLRPPRLPRPRPRPNSGPRP,-0.095
9,RRIRVRPPRLPRPRPRPINIPRP,-0.347
10,RRIRFRPPRLPRPRPRPYNVPRP,-0.138
11,RRIRGRPPRLPRPRPRPGDPPRP,0.779
12,RRIRCRPPRLPRPRPRPENPPRP,-0.0628
13,RRIRERPPRLPRPRPRPLGSPRP,-0.0249
14,RRIRLRPPRLPRPRPRPPMEPRP,0.347
15,RRIRFRPPRLPRPRPRPEWAPRP,0.398
16,RRIRWRPPRLPRPRPRPLQQPRP,0.115
17,RRIRNRPPRLPRPRPRPCCGPRP,-0.148
18,RRIRVRPPRLPRPRPRPFNMPRP,-0.19
19,RRIRKRPPRLPRPRPRPDHWPRP,0.355
20,RRIRIRPPRLPRPRPRPERIPRP,0.0552
